Our source for the Km and Vmax values is ChEMBL document CHEMBL4043061, “Potent, Selective, Allosteric Inhibition of Human Plasmin by Sulfated Non-Saccharide Glycosaminoglycan Mimetics” (J Med Chem, 2017).

Substrate in data set [1]: O=c1c(O)c(-c2ccc(O)c(O)c2)oc2cc(O)cc(OCc3ccc(COc4cc(O)cc5oc(-c6ccc(O)c(O)c6)c(O)c(=O)c45)cc3)c12
The following applies: Homo sapiens; 240 uM.
Description: Uncompetitive allosteric inhibition of human plasmin assessed as substrate Km at 240 uM using chromogenic substrate spectrozyme PL by Michaelis-Menten plot analysis

Substrate in data set [2]: O=c1c(OS(=O)(=O)O)c(-c2ccc(OS(=O)(=O)O)c(OS(=O)(=O)O)c2)oc2cc(OS(=O)(=O)O)cc(OCc3ccc(COc4cc(OS(=O)(=O)O)cc5oc(-c6ccc(OS(=O)(=O)O)c(OS(=O)(=O)O)c6)c(OS(=O)(=O)O)c(=O)c45)cc3)c12
The following applies: Homo sapiens; 100 uM.

Substrate in data set [3]: O=c1c(OS(=O)(=O)O)c(-c2ccc(OS(=O)(=O)O)c(OS(=O)(=O)O)c2)oc2cc(OS(=O)(=O)O)cc(OCc3ccc(COc4cc(OS(=O)(=O)O)cc5oc(-c6ccc(OS(=O)(=O)O)c(OS(=O)(=O)O)c6)c(OS(=O)(=O)O)c(=O)c45)cc3)c12
The following applies: Homo sapiens; 8 uM.
Description: Uncompetitive allosteric inhibition of human plasmin assessed as Vmax for substrate hydrolysis at 8 uM using chromogenic substrate spectrozyme PL by Michaelis-Menten plot analysis

Substrate in data set [4]: O=c1c(O)c(-c2ccc(O)c(O)c2)oc2cc(O)cc(OCc3ccc(COc4cc(O)cc5oc(-c6ccc(O)c(O)c6)c(O)c(=O)c45)cc3)c12
The following applies: Homo sapiens; 240 uM. This is another data set of the same source.
Description: Competitive allosteric inhibition of human plasmin assessed as Vmax for substrate hydrolysis at 240 uM using chromogenic substrate spectrozyme PL by Michaelis-Menten plot analysis

Substrate in data set [5]: O=c1c(OS(=O)(=O)O)c(-c2ccc(OS(=O)(=O)O)c(OS(=O)(=O)O)c2)oc2cc(OS(=O)(=O)O)cc(OCc3ccc(COc4cc(OS(=O)(=O)O)cc5oc(-c6ccc(OS(=O)(=O)O)c(OS(=O)(=O)O)c6)c(OS(=O)(=O)O)c(=O)c45)cc3)c12
The note with it: Homo sapiens; 200 uM.

Substrate in data set [6]: O=c1c(OS(=O)(=O)O)c(-c2ccc(OS(=O)(=O)O)c(OS(=O)(=O)O)c2)oc2cc(OS(=O)(=O)O)cc(OCc3ccc(COc4cc(OS(=O)(=O)O)cc5oc(-c6ccc(OS(=O)(=O)O)c(OS(=O)(=O)O)c6)c(OS(=O)(=O)O)c(=O)c45)cc3)c12
The note with it: Homo sapiens; 1.6 uM.
Description: Uncompetitive allosteric inhibition of human plasmin assessed as substrate Km at 1.6 uM using chromogenic substrate spectrozyme PL by Michaelis-Menten plot analysis

Substrate in data set [7]: O=c1c(O)c(-c2ccc(O)c(O)c2)oc2cc(O)cc(OCc3ccc(COc4cc(O)cc5oc(-c6ccc(O)c(O)c6)c(O)c(=O)c45)cc3)c12
The following applies: Homo sapiens; 100 uM.

Substrate in data set [8]: O=c1c(O)c(-c2ccc(O)c(O)c2)oc2cc(O)cc(OCc3ccc(COc4cc(O)cc5oc(-c6ccc(O)c(O)c6)c(O)c(=O)c45)cc3)c12
The note with it: Homo sapiens; 100 uM. The source holds these as a separate data set.

Substrate in data set [9]: O=c1c(OS(=O)(=O)O)c(-c2ccc(OS(=O)(=O)O)c(OS(=O)(=O)O)c2)oc2cc(OS(=O)(=O)O)cc(OCc3ccc(COc4cc(OS(=O)(=O)O)cc5oc(-c6ccc(OS(=O)(=O)O)c(OS(=O)(=O)O)c6)c(OS(=O)(=O)O)c(=O)c45)cc3)c12
The following applies: Homo sapiens; 8 uM. The source holds these as a separate data set.
Description: Uncompetitive allosteric inhibition of human plasmin assessed as substrate Km at 8 uM using chromogenic substrate spectrozyme PL by Michaelis-Menten plot analysis

Substrate in data set [10]: O=c1c(OS(=O)(=O)O)c(-c2ccc(OS(=O)(=O)O)c(OS(=O)(=O)O)c2)oc2cc(OS(=O)(=O)O)cc(OCc3ccc(COc4cc(OS(=O)(=O)O)cc5oc(-c6ccc(OS(=O)(=O)O)c(OS(=O)(=O)O)c6)c(OS(=O)(=O)O)c(=O)c45)cc3)c12
The note with it: Homo sapiens; 40 uM.

Substrate in data set [11]: O=c1c(OS(=O)(=O)O)c(-c2ccc(OS(=O)(=O)O)c(OS(=O)(=O)O)c2)oc2cc(OS(=O)(=O)O)cc(OCc3ccc(COc4cc(OS(=O)(=O)O)cc5oc(-c6ccc(OS(=O)(=O)O)c(OS(=O)(=O)O)c6)c(OS(=O)(=O)O)c(=O)c45)cc3)c12
The following applies: Homo sapiens; 100 uM. This is another data set of the same source.

Substrate in data set [12]: O=c1c(O)c(-c2ccc(O)c(O)c2)oc2cc(O)cc(OCc3ccc(COc4cc(O)cc5oc(-c6ccc(O)c(O)c6)c(O)c(=O)c45)cc3)c12
The note with it: Homo sapiens; 400 uM.

Substrate in data set [13]: O=c1c(OS(=O)(=O)O)c(-c2ccc(OS(=O)(=O)O)c(OS(=O)(=O)O)c2)oc2cc(OS(=O)(=O)O)cc(OCc3ccc(COc4cc(OS(=O)(=O)O)cc5oc(-c6ccc(OS(=O)(=O)O)c(OS(=O)(=O)O)c6)c(OS(=O)(=O)O)c(=O)c45)cc3)c12
The note with it: Homo sapiens; 200 uM. This is another data set of the same source.

Substrate in data set [14]: O=c1c(OS(=O)(=O)O)c(-c2ccc(OS(=O)(=O)O)c(OS(=O)(=O)O)c2)oc2cc(OS(=O)(=O)O)cc(OCc3ccc(COc4cc(OS(=O)(=O)O)cc5oc(-c6ccc(OS(=O)(=O)O)c(OS(=O)(=O)O)c6)c(OS(=O)(=O)O)c(=O)c45)cc3)c12
The following applies: Homo sapiens; 1.6 uM. This is another data set of the same source.
Description: Uncompetitive allosteric inhibition of human plasmin assessed as Vmax for substrate hydrolysis at 1.6 uM using chromogenic substrate spectrozyme PL by Michaelis-Menten plot analysis

Substrate in data set [15]: O=c1c(OS(=O)(=O)O)c(-c2ccc(OS(=O)(=O)O)c(OS(=O)(=O)O)c2)oc2cc(OS(=O)(=O)O)cc(OCc3ccc(COc4cc(OS(=O)(=O)O)cc5oc(-c6ccc(OS(=O)(=O)O)c(OS(=O)(=O)O)c6)c(OS(=O)(=O)O)c(=O)c45)cc3)c12
The note with it: Homo sapiens; 40 uM. This is another data set of the same source.

Substrate in data set [16]: O=c1c(O)c(-c2ccc(O)c(O)c2)oc2cc(O)cc(OCc3ccc(COc4cc(O)cc5oc(-c6ccc(O)c(O)c6)c(O)c(=O)c45)cc3)c12
The note with it: Homo sapiens; 400 uM. The source holds these as a separate data set.

B1: Plasminogen (Homo sapiens), P00747 (protein)
chain: MEHKEVVLLLLLFLKSGQGEPLDDYVNTQGASLFSVTKKQLGAGSIEECAAKCEEDEEFTCRAFQYHSKEQQCVIMAENRKSSIIIRMRDVVLFEKKVYLSECKTGNGKNYRGTMSKTKNGITCQKWSSTSPHRPRFSPATHPSEGLEENYCRNPDNDPQGPWCYTTDPEKRYDYCDILECEEECMHCSGENYDGKISKTMSGLECQAWDSQSPHAHGYIPSKFPNKNLKKNYCRNPDRELRPWCFTTDPNKRWELCDIPRCTTPPPSSGPTYQCLKGTGENYRGNVAVTVSGHTCQHWSAQTPHTHNRTPENFPCKNLDENYCRNPDGKRAPWCHTTNSQVRWEYCKIPSCDSSPVSTEQLAPTAPPELTPVVQDCYHGDGQSYRGTSSTTTTGKKCQSWSSMTPHRHQKTPENYPNAGLTMNYCRNPDADKGPWCFTTDPSVRWEYCNLKKCSGTEASVVAPPPVVLLPDVETPSEEDCMFGNGKGYRGKRATTVTGTPCQDWAAQEPHRHSIFTPETNPRAGLEKNYCRNPDGDVGGPWCYTTNPRKLYDYCDVPQCAAPSFDCGKPQVEPKKCPGRVVGGCVAHPHSWPWQVSLRTRFGMHFCGGTLISPEWVLTAAHCLEKSPRPSSYKVILGAHQEVNLEPHVQEIEVSRLFLEPTRKDIALLKLSSPAVITDKVIPACLPSPNYVVADRTECFITGWGETQGTFGAGLLKEAQLPVIENKVCNRYEFLNGRVQSTELCAGHLAGGTDSCQGDSGGPLVCFEKDKYILQGVTSWGLGCARPNKPGVYVRVSRFVTWIEGVMRNN
The Km is the substrate concentration at which the rate is half of its maximum. As to B1, the Km in data set [1] came to 807 µM; in [2], 8 µM; in data set [5], 4 µM; in data set [6], 50 µM; in data set [8], 357 µM; in data set [9], 20 µM. Moreover, the results for the Km in [15] and in data set [16] were 20 µM and 1120 µM, respectively. The Vmax in data set [3] turned out to be 29 mAU/min; in data set [4] it was 51.7 mAU/min; in data set [7], 51 mAU/min; in [10] it was 22.1 mAU/min; in data set [11] it was 15.1 mAU/min; in data set [12], 51.3 mAU/min. For the same protein, the Vmax in data set [13] stood at 10.4 mAU/min; in data set [14], 36.3 mAU/min.
